# Test results as given in US20140127211A1 (Pfizer, published 2014).
# B1: parental rat clone 75 (r75) (antibody, V domains shown)
# VH: QVKLLQSGAALVKPGASVKMSCKASGYAFTDYWVTWVKQSHGKSLEWIGEISPNSGGTNFNEKFKGKATLTVDKSTSTAYMELSRLTSEDSAIYYCTRGEIRYNWFAYWGQGTLVTVSS
# VL: NIVMTQSPKSMSISVGDRVTMNCKASQNVGNNIAWYQQKPGQSPKLLIYYASNRYTGVPDRFTGGGYGTDFTLTINSMQAEDAAFYYCQRLYNSPFTFGSGTKLEIK
# notes: Rat monoclonal antibody from hybridoma, tested as hybridoma supernatant
# B2: hu75-vc6780 (Notch3-75-v1913-hG1-(C)_mcValCitPABC-#112) (antibody, human IgG1, kappa, V domains shown)
# VH: EVQLVESGGGLVQPGGSLRLSCAASGYAFTDYWMTWVRQAPGKGLEWVAEISPNSGGTNFNEKFKGRFTISVDNAKNSLYLQMNSLRAEDTAVYYCARGEIRYNWFAYWGQGTLVTVSS
# VL: DIQMTQSPSSLSASVGDRVTITCKASQNVGNNIAWYQQKPGKAPKLLIYYASNRYTGVPSRFSGSGYGTDFTLTISSLQPEDFATYYCQRLYNSPFTFGGGTKVEIKR
# modifications: vc6780 linker-payload on cysteine residues after partial reduction; sites not specified
# notes: Antibody-drug conjugate of hu75
# B3: hu75-vc0101 (Notch3-75-v1913-hG1-(C)_mcValCitPABC-#54) (antibody, human IgG1, kappa, V domains shown)
# VH: B2 VH
# VL: B2 VL
# modifications: vc0101 linker-payload on cysteine residues after partial reduction; sites not specified
# notes: as for B2
# B4: rat-human chimeric antibody 28 (ch28) (antibody, V domains shown)
# VH: EVQLVESGGGLVQPGRSLTLSCVASGFTFRDYGMTWIRQAPGKGLTWVAYISSGSNYIYYAEAVKGRFTISRDNAKNTLYLQMTSLRSEDTALYFCTRRGPFVLDAWGQGASVTVSS
# VL: DIQMTQSPSFLSASVGDRVTINCKASQSINRYLHWFQQKLGEAPKLLIYNANGLQTGIPSRFSGSGSGTDFTLTISSLQSEDVATYFCLQHNTWPDTFGAGTKLELK
# notes: also called ch28-hIgG1; ch28-hulgG1
# Assays:
# [1] = biological target: T1, human Notch3 NRR recombinant protein (Notch3 NRR_Avi_His tag) (human); assay: ELISA, recombinant protein, hybridoma supernatant
# T1 construct: Purified from CHO-PACE cells; the entry includes the C-terminal Avi and His6 tag
# T1 chain: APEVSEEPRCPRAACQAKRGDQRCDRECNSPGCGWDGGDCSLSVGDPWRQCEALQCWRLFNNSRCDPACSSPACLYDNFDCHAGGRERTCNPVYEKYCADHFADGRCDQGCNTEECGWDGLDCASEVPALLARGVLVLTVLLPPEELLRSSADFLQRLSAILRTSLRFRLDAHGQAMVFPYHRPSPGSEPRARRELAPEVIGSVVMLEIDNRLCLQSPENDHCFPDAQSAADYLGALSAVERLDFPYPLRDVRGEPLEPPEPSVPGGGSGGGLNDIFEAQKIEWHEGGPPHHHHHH
# [2] = biological target: T2, full-length mouse Notch3 expressed on the cell surface (mouse, UniProt Q61982 40-2318); assay: cell-based ELISA, U-2 OS cells over-expressing mouse Notch3
# T2 construct: whole, on cells; Over-expressed on U-2 OS cells; also called U2OS/mNotch3
# [3] = biological target: T3, full-length human Notch3 expressed on the cell surface (human, UniProt Q9UM47 40-2321); assay: cell-based ELISA, HCC2429 cells; SD 0.063
# T3 construct: whole, on cells; also called hNotch3; U2OS/hNotch3
# Protocol: (§1) On the day of the ELISA, culture media was removed from wells and serially diluted (1:3 in DPBS with calcium chloride and magnesium chloride (Ca/Mg) and 1% BSA) antibody and ADC solutions were applied to the plate. Plates were incubated at room temperature for 2 hours before washed with DPBS with Ca/Mg and 1% BSA. HRP-conjugated secondary antibody was then applied and incubated with cells for 1 hour. Plates were washed with DPBS with Ca/Mg and 1% BSA before being developed with Pico-Chemiluminescent developing kit (Thermal Scientific), and chemiluminescence measurements were performed per manufacturer's instructions. Data plotting and analyses were performed with Microsoft Excel and Graphpad-Prism software.
# [4] = biological target: T3, full-length human Notch3 expressed on …; assay: cell-based or functional assay
# [5] = biological target: T3, full-length human Notch3 expressed on …; assay: cell-based ELISA, MDA-MB-468 cells; SD 0.062
# Protocol: as §1
# [6] = biological target: T3, full-length human Notch3 expressed on …; assay: cell-based or functional assay; remark: listed apart in the source
# [7] = biological target: T3, full-length human Notch3 expressed on …; assay: cell-based ELISA, U2OS/hNotch3 cells; SD 0.041
# Protocol: as §1
# [8] = biological target: T3, full-length human Notch3 expressed on …; assay: cell-based ELISA, MDA-MB-468 cells; SD 0.167
# Protocol: as §1
# [9] = biological target: T3, full-length human Notch3 expressed on …; assay: cell-based ELISA, HCC2429 cells; SD 0.115
# Protocol: as §1
# [10] = biological target: T3, full-length human Notch3 expressed on …; assay: cell-based ELISA, U2OS/hNotch3 cells; SD 0.057
# Protocol: as §1
# human Notch1 NRR-Fc = biological target: T4, human Notch1 NRR-Fc (human, UniProt P46531 1446-1733, limits assumed); assay: ELISA: NRR-Fc protein coated at 1 ug/ml, antibody applied at 5 ug/ml, goat anti-human Fc-HRP, TMB, O.D. 450 nM
# T4 construct: domain: NRR region; Made in CHO-PACE cells; not shown: human IgG1 Fc fragment
# T4 sequence (looked up): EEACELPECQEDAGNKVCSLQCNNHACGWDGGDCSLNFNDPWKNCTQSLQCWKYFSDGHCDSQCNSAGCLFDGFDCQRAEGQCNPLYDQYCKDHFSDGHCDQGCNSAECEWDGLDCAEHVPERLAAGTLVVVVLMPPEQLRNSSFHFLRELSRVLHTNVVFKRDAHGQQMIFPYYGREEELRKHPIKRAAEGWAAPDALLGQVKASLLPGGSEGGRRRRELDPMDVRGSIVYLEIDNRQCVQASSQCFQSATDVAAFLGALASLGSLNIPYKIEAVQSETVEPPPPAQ
# Notch3-NRR = Notch3-NRR (human); assay: as above
# Protocol: (§2) After 1 hour of incubation, plates were washed with PBS with 0.9 mM Mg²⁺ and Ca²⁺, before secondary goat anti-human Fc antibody conjugated with HRP were applied and incubated on the plates. After washing again, the plates were developed with TMB and the developing reactions were stopped by adding 0.18M H₂SO₄.
# [11] = biological target: T5, Notch 1-3 NRR domain swap chimera: B of Notch1; A, C, hd1, hd2 of Notch3 (row 5, unnamed on the sheet) (human); assay: as above
# T5 construct: part of the NRR
# Protocol: as §2
# [12] = biological target: T6, Notch 1-3 NRR domain swap chimera: hd2 of Notch1; A, B, C, hd1 of Notch3 (row 8, unnamed on the sheet) (human); assay: as above
# T6 construct: part of the NRR
# Protocol: as §2
# [13] = biological target: T7, Notch 1-3 NRR domain swap chimera: A of Notch1; B, C, hd1, hd2 of Notch3 (row 4, unnamed on the sheet) (human); assay: as above
# T7 construct: part of the NRR
# Protocol: as §2
# [14] = biological target: T2, full-length mouse Notch3 expressed on …; assay: cell-based ELISA, U2OS/mNotch3 cells
# Protocol: (§3) U-2 OS cells stably over-expressing human or mouse full length Notch3 protein on cell surface (hereinafter U2OS/hNotch3 and U2OS/mNotch3, respectively) were plated at 50,000 cells/well in 96 well plates (white opaque, BD/VWR) the day before ELISA assay. On the day of the ELISA, culture media was removed from wells and serially diluted (1:3 in blocking buffer) antibody solutions were applied to the plate. Plates were incubated at room temperature for 2 hours before being washed with PBS-Mg/Ca. HRP-conjugated secondary antibody was then applied and incubated with cells for 1 hour as described above for recombinant protein ELISA. Plates were washed with PBS-Mg/Ca before being developed with Pico-Chemiluminescent developing kit (Thermal Scientific), and chemiluminescence measurements were performed per manufacturer's instructions. Data plotting and analyses were performed with Microsoft Excel and Graphpad-Prism software.
# [15] = biological target: T3, full-length human Notch3 expressed on …; assay: competition ELISA on U2OS/hNotch3 cells; competitor 0.8 nM biotinylated ch28
# Protocol: 96 well cell culture plates were seeded with U2OS/hNotch3 cells (cell culture plate, Co-star). […] After incubation for 2 hours, the plates were washed, as described above, and HRP-conjugated streptavidin (Southern Biotech) diluted 1:5000 in blocking buffer was applied. After incubation with streptavidin for 30 minutes, the plates were washed again before being developed with TMB solution for 10 minutes. […] Data plotting and analyses were performed with Microsoft Excel and Graphpad-Prism software.
# [16] = biological target: T3, full-length human Notch3 expressed on …; assay: cell-based ELISA, U2OS/hNotch3 cells
# Protocol: as §3
# [17] = biological target: T1, human Notch3 NRR recombinant protein …; assay: SPR (Biacore T100), antibody captured on anti-human IgG-Fc, Notch3 NRR as analyte, 1:1 Langmuir fit
# Protocol: The kinetic constants of the anti-Notch3 NRR interactions were determined by surface plasmon resonance (Biacore® T100, Biacore Inc., Piscataway, N.J.). Flow cells of a CM5 chip were immobilized with approximately 10,000 response units (RU) of anti-human IgG-Fc (Biacore®) in 10 mM Glycine, pH 5.0 at 10 μl/min for 600 seconds. […] Association of four concentrations of human Notch3 NRR recombinant protein (from 3.7-100 nM) and a zero concentration (running buffer) at 100 μl/min were recorded for 3 minutes in TBS with 1 mM CaCl₂. Dissociation of the complexes was measured for 10 minutes. The surface of the chip was regenerated by injecting 3M MgCl₂ with 3 mM EGTA for 60 seconds at 10 μl/min. Curves obtained after subtraction of the reference and buffer signals were fitted to a 1:1 Langmuir binding model with Biacore® T100 Evaluation Software (Biacore®).
# [18] = biological target: T8, mouse Notch3 NRR recombinant protein (Notch3 NRR_Avi_His tag) (mouse); assay: ELISA, plate-coated recombinant protein
# T8 construct: The entry includes the C-terminal Avi and His tag; S1-cleaved heterodimer as for the human protein
# T8 chain: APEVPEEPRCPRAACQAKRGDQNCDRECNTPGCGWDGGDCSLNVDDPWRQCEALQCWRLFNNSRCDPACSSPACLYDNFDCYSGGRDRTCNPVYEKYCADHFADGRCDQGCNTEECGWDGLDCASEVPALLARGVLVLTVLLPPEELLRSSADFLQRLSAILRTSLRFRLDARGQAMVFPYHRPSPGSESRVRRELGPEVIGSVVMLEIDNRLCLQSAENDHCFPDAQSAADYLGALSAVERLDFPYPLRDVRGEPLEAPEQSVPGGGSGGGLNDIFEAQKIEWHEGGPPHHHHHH
# Protocol: (§4) Purified human or mouse Notch3 NRR recombinant proteins were coated on CoStar hi-bound 96-well ELISA plates in 100 μl of PBS with Mg/Ca at a concentration of 1 μg/ml overnight. The plates were washed with PBS-Mg/Ca and blocked for 1 hour with 1% BSA in PBS-Mg/Ca. Blocking solution was decanted from the plate and 1:3 serial dilutions of antibodies in blocking solutions were applied to the plate. After incubation at room temperature for 1 hour, plates were washed again with PBS-Mg/Can before HRP (horse radish peroxidase)-conjugated secondary antibody diluted (1:20,000) in blocking buffer was applied. When the primary antibody tested was rat IgG, the secondary antibody was goat anti-rat IgG Fc (Bethyl Biotech); and when the primary antibody was human IgG, the secondary antibody was goat anti-human IgG Fc (Southern Biotech).
# (§5) After 1 hour incubation with the secondary antibody, plates were washed again, as described above, and TMB substrate solution was added. The developing reaction was allowed for 10 minutes before the stopping solution, 0.18M H₂SO₄, was added.
# [19] = biological target: T1, human Notch3 NRR recombinant protein …; assay: ELISA, plate-coated recombinant protein
# Protocol: as §4, §5
# T3 sequence (Q9UM47 40-2321): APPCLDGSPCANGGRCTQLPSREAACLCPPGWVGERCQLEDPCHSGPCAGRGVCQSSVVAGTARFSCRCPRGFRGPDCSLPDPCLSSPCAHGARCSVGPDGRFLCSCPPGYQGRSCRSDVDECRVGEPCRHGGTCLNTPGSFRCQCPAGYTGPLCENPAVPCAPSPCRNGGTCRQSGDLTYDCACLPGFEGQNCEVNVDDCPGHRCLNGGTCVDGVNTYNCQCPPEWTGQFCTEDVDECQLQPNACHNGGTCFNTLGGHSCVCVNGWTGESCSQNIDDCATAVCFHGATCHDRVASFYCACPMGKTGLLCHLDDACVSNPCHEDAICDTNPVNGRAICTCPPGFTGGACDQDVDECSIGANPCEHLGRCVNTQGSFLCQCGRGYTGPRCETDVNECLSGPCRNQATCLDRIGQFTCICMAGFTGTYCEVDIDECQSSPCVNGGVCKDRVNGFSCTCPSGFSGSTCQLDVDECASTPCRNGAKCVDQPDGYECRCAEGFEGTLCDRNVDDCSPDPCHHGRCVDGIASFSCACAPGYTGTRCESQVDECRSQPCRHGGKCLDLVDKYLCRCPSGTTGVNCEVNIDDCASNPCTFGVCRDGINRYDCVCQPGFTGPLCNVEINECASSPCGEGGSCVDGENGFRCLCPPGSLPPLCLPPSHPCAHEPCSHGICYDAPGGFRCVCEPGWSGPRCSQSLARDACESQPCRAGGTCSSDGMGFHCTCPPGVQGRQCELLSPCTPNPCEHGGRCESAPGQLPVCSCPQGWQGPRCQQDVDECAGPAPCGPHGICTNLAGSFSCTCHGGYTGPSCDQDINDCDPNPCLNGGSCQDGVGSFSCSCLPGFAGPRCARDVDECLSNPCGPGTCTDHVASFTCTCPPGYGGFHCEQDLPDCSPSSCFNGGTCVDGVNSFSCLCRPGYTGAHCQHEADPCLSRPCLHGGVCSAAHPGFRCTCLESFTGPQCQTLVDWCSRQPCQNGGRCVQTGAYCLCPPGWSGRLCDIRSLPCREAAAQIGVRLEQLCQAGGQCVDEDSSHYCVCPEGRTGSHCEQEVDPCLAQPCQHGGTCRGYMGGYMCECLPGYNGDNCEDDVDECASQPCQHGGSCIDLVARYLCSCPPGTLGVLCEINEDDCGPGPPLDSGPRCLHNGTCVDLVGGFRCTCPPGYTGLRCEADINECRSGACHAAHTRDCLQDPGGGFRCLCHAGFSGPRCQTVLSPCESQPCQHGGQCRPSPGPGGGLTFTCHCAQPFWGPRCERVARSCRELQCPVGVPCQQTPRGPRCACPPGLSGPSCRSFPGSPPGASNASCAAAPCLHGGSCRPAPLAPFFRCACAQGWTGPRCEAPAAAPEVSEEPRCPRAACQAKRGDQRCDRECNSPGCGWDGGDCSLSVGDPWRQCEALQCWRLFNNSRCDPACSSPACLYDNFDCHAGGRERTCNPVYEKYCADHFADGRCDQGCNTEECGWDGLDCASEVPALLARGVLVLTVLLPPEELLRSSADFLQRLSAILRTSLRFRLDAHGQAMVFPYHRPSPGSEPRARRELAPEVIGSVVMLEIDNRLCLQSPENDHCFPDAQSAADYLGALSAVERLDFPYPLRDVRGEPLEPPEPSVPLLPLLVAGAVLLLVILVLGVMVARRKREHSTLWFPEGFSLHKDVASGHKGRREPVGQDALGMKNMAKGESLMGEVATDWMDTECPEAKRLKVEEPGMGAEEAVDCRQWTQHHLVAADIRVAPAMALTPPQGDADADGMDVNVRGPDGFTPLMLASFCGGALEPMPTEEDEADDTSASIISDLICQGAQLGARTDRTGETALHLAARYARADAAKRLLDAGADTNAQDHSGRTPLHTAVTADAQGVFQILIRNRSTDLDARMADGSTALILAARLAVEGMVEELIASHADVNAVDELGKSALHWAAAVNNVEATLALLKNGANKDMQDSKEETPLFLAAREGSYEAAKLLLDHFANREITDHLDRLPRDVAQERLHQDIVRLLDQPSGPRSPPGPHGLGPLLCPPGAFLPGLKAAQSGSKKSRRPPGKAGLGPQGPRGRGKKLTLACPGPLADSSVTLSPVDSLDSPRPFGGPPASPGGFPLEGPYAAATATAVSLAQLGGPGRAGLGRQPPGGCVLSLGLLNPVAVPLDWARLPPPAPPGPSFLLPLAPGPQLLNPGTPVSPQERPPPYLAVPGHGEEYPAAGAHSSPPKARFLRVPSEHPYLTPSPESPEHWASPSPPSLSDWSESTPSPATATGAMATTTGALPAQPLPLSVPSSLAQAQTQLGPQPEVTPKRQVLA
# T2 sequence (Q61982 40-2318): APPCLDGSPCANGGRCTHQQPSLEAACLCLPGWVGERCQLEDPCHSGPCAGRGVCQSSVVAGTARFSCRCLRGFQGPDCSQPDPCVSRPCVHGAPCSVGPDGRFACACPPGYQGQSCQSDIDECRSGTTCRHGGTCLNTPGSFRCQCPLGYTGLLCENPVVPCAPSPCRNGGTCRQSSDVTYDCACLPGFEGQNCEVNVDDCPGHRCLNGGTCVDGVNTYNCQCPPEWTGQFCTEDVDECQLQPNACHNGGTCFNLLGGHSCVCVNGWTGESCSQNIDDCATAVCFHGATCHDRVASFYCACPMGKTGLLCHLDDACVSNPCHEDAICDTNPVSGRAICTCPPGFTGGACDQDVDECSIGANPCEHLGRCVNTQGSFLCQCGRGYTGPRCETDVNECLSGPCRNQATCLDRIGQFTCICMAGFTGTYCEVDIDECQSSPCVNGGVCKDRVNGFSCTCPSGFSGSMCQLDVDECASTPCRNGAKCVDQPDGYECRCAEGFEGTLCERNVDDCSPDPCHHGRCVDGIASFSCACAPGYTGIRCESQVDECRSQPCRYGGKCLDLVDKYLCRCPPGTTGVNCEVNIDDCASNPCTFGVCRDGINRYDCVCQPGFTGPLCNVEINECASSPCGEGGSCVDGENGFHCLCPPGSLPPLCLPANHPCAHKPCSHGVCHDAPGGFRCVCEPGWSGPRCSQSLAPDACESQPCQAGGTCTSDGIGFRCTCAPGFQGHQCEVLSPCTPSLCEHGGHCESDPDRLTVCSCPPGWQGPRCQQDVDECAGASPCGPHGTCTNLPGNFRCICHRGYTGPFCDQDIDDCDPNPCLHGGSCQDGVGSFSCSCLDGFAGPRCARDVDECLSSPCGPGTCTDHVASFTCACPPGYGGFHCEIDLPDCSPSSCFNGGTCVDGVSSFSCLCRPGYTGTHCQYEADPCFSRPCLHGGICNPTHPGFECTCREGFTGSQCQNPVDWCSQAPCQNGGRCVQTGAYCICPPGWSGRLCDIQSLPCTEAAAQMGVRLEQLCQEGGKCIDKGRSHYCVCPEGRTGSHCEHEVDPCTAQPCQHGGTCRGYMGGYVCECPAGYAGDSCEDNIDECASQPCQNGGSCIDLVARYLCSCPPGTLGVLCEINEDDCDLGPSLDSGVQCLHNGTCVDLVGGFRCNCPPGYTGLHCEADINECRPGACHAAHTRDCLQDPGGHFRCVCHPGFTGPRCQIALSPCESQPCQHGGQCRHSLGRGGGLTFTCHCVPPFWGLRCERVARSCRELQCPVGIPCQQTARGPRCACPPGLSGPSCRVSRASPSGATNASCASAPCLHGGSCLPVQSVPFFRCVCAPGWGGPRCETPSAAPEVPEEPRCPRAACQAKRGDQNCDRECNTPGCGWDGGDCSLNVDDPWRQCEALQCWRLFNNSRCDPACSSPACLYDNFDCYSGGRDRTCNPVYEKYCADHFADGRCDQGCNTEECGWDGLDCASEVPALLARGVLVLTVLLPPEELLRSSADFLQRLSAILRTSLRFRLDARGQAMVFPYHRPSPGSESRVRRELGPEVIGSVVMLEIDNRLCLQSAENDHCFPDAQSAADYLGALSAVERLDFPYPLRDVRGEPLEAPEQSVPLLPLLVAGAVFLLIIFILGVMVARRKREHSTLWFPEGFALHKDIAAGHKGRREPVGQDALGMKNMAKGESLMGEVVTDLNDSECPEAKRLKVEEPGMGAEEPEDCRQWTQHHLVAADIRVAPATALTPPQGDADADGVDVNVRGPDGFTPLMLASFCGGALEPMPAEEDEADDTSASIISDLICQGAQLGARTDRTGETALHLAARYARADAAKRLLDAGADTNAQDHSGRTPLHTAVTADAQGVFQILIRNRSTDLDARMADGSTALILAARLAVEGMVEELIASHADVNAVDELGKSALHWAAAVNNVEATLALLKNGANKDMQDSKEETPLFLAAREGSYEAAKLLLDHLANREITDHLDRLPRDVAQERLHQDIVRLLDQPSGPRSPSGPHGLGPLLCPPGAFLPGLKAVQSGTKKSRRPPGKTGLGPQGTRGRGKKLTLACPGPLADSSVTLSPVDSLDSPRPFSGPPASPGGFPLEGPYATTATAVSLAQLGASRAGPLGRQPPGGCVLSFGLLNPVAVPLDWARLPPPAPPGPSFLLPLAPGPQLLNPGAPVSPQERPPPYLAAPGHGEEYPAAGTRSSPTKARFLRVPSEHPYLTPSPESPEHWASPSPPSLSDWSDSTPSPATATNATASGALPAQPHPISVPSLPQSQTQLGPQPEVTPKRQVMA
binder,measurement,setting,value
B1,O.D. 450 nM,[1],≥ 1 O.D. 450 nM
same,binding result,[2],no binding
B2,EC50,[3],343 pM
same,"IC50 of cytotoxicity, MDA-MB-468/hNotch3 cells, Notch3 siRNA (reduced Notch3 expression)",[4],7980 ng Ab/mL
same,"IC50 of cytotoxicity, MDA-MB-468/hNotch3 cells, control siRNA",[4],17 ng Ab/mL
same,EC50,[5],1800 pM
same,"IC50 of cytotoxicity (MTS viability), HCC2429 cells, repeat 1",[6],214 ng Ab/mL
same,"IC50 of cytotoxicity (MTS viability), HCC2429 cells, repeat 2",[6],630 ng Ab/mL
same,"IC50 of cytotoxicity (MTS viability), MDA-MB-468/hNotch3 cells, repeat 1",[6],26 ng Ab/mL
same,"IC50 of cytotoxicity (MTS viability), MDA-MB-468/hNotch3 cells, repeat 2",[6],25 ng Ab/mL
same,"IC50 of cytotoxicity (MTS viability), OVCAR3 cells",[6],254 ng Ab/mL
same,EC50,[7],723 pM
B3,"IC50 of cytotoxicity, MDA-MB-468/hNotch3 cells, Notch3 siRNA (reduced Notch3 expression)",[4],3190 ng Ab/mL
same,"IC50 of cytotoxicity, MDA-MB-468/hNotch3 cells, control siRNA",[4],29 ng Ab/mL
same,EC50,[8],2020 pM
same,EC50,[9],427 pM
same,EC50,[10],798 pM
same,"IC50 of cytotoxicity (MTS viability), HCC2429 cells, repeat 1",[6],611 ng Ab/mL
same,"IC50 of cytotoxicity (MTS viability), HCC2429 cells, repeat 2",[6],3300 ng Ab/mL
same,"IC50 of cytotoxicity (MTS viability), MDA-MB-468/hNotch3 cells, repeat 1",[6],37 ng Ab/mL
same,"IC50 of cytotoxicity (MTS viability), MDA-MB-468/hNotch3 cells, repeat 2",[6],36 ng Ab/mL
same,"IC50 of cytotoxicity (MTS viability), MDA-MB-468 cells",[6],7000 ng Ab/mL
same,"IC50 of cytotoxicity (MTS viability), OVCAR3 cells",[6],515 ng Ab/mL
same,"IC50 of cytotoxicity (MTS viability), U2OS/hNotch3 cells",[6],523 ng Ab/mL
B4,binding result,human Notch1 NRR-Fc,no binding (tested: 5 ug/ml)
same,"O.D. 450 nM (ELISA, relative binding capacity)",Notch3-NRR,2.06
same,"O.D. 450 nM (ELISA, relative binding capacity)",[11],0.54
same,"O.D. 450 nM (ELISA, relative binding capacity)",[12],0.5
same,"O.D. 450 nM (ELISA, relative binding capacity)",[13],0.15
same,EC50,[14],130 pM
same,EC50,[15],3000 pM
same,EC50,[16],98 pM
same,Kd,[17],610 pM
same,koff,[17],0.000249 s⁻¹
same,kon,[17],409000 M⁻¹ s⁻¹
same,EC50,[18],≤ 1000 pM
same,EC50,[19],≤ 1000 pM
